Biological target: PHF8 (Homo sapiens, UniProt Q9UPP1)
Experiment: PHF8 demethylation time course
Assay type: biochemical
Conditions: equimolar ratio added

Sequence of PHF8 (Q9UPP1 37-483): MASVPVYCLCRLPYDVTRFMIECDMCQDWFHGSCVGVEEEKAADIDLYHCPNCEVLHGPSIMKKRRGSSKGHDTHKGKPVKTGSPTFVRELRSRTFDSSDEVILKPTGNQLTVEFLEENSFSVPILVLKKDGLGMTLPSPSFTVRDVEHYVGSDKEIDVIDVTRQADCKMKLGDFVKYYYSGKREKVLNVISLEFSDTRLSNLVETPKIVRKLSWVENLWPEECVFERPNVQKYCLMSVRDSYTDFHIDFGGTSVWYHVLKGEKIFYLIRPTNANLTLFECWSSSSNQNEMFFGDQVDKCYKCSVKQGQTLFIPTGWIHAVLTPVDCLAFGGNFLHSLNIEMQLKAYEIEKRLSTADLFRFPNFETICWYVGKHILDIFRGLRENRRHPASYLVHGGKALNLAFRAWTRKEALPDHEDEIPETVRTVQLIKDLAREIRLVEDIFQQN

Row | effect of added peptide in trans on demethylation of H3_1–24K9me2 by PHF8 | Substance
1 | inhibitory effect | H3_1–21K4me3: H3K4me3 modification in a long H3_1–21 peptide
2 | inhibitory effect | H3_1–12K4me3: H3K4me3 modification in a short H3_1–12 peptide

— publication PMC2849977 (Nature structural & molecular biology, 2009)
